According to the supplement of paper PMC10567573:

B1: EPB41L3 (parent)
chain: SDYISEFRFAPNHTKELEDKVIEL

Variants of: B1
Assay: protein stability index of a GFP-peptide fusion (GPS, HEK-293T) (PSI 1-6); higher = more stable
Details: c terminus: a fixed tail appended
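Note: lentivirally expressed fusions sorted by FACS into six bins by GFP to DsRed ratio, PSI derived from sequencing read proportions per bin multiplied by bin number.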

Row | Variant | protein stability index
1 | L17M | 2.47
2 | L17Q | 2.18
3 | L17G | 1.97
4 | L17T | 1.98
5 | L17Y | 2.59
6 | L17D | 2.51
7 | L17W | 1.77
8 | L17H | 1.84
9 | L17N | 2.17
10 | L17A | 1.87
11 | L17F | 2.86
12 | L17C | 2.05
13 | L17E | 2.32
14 | L17V | 2.68
15 | L17S | 1.84
16 | L17P | 1.96
17 | L17I | 2.37
18 | L17K | 2.07
19 | L17R | 1.27
20 | R8I | 3.24
21 | R8S | 4.3
22 | R8W | 3.17
23 | R8A | 3.7
24 | R8C | 4.05

Row | Variant | protein stability index
25 | R8Y | 3.31
26 | R8P | 4.4
27 | R8H | 4.48
28 | R8V | 3.39
29 | R8L | 3.24
30 | R8T | 3.99
31 | R8E | 4.47
32 | R8N | 3.94
33 | R8Q | 4.1
34 | R8F | 2.04
35 | R8M | 3.49
36 | R8K | 4.26
37 | R8G | 4.38
38 | R8D | 4.51
39 | V21T | 2.18
40 | V21K | 2.15
41 | V21Y | 2.14
42 | V21D | 2.96
43 | V21F | 3.22
44 | V21P | 1.94
45 | V21A | 2.31
46 | V21Q | 1.99
47 | V21R | 1.78
48 | V21M | 3.45

Row | Variant | protein stability index
49 | V21G | 2.37
50 | V21N | 2.38
51 | V21W | 2.14
52 | V21H | 1.85
53 | V21E | 2.54
54 | V21I | 2.22
55 | V21S | 2.05
56 | V21C | 1.88
57 | V21L | 2.48
58 | D19P | 2.19
59 | D19H | 1.86
60 | D19Y | 1.36
61 | D19C | 2.02
62 | D19M | 2.03
63 | D19A | 1.49
64 | D19N | 1.79
65 | D19T | 1.8
66 | D19V | 2.09
67 | D19S | 2.81
68 | D19K | 1.89
69 | D19L | 2.69
70 | D19Q | 1.71
71 | D19E | 1.77
72 | D19W | 3.08

Row | Variant | protein stability index
73 | D19F | 3.65
74 | D19G | 2.06
75 | D19R | 1.39
76 | D19I | 2.71
77 | E23G | 1.72
78 | E23Q | 2.05
79 | E23T | 1.96
80 | E23A | 1.9
81 | E23S | 2.09
82 | E23P | 1.82
83 | E23K | 1.75
84 | E23Y | 2.38
85 | E23M | 1.92
86 | E23D | 2.01
87 | E23F | 3.17
88 | E23L | 1.93
89 | E23C | 1.38
90 | E23H | 2.18
91 | E23V | 2.38
92 | E23I | 1.55
93 | E23W | 1.46
94 | E23R | 2.02
95 | E23N | 1.42
96 | E18G | 2.53

Row | Variant | protein stability index
97 | E18R | 2.34
98 | E18W | 1.56
99 | E18Q | 2.42
100 | E18F | 1.8
101 | E18N | 1.81
102 | E18T | 1.73
103 | E18D | 1.49
104 | E18A | 2.05
105 | E18I | 2.19
106 | E18C | 1.44
107 | E18H | 2.77
108 | E18Y | 1.77
109 | E18S | 2.32
110 | E18L | 1.77
111 | E18V | 2.07
112 | E18P | 1.47
113 | E18K | 2.08
114 | E18M | 1.8
115 | H13M | 2.06
116 | H13V | 1.59
117 | H13K | 2.29
118 | H13W | 1.72
119 | H13E | 3.3
120 | H13P | 1.99

Row | Variant | protein stability index
121 | H13S | 2.06
122 | H13R | 1.94
123 | H13C | 2.19
124 | H13L | 2.31
125 | H13A | 2.84
126 | H13I | 2.28
127 | H13Q | 2.46
128 | H13N | 2.36
129 | H13D | 3.71
130 | H13F | 1.92
131 | H13G | 2.16
132 | H13T | 2.08
133 | H13Y | 2.35
134 | F9H | 4.41
135 | F9I | 3.83
136 | F9Q | 4.63
137 | F9L | 4.09
138 | F9N | 4.59
139 | F9A | 4.79
140 | F9V | 4.44
141 | F9M | 4.03
142 | F9K | 4.29
143 | F9S | 4.79
144 | F9R | 4.58

Row | Variant | protein stability index
145 | F9D | 4.97
146 | F9E | 4.97
147 | F9Y | 2.25
148 | F9T | 4.24
149 | F9G | 4.6
150 | F9C | 3.93
151 | F9W | 3.54
152 | F9P | 4.76
153 | I22M | 2.31
154 | I22F | 1.74
155 | I22S | 3.18
156 | I22A | 3.26
157 | I22G | 2.79
158 | I22V | 2.58
159 | I22C | 2.19
160 | I22H | 2.55
161 | I22Q | 2.92
162 | I22Y | 2.29
163 | I22N | 2.74
164 | I22R | 3.03
165 | I22K | 2.51
166 | I22T | 2.56
167 | I22L | 2.28
168 | I22D | 2.88

Row | Variant | protein stability index
169 | I22W | 2.45
170 | I22E | 2.94
171 | I22P | 2.58
172 | N12Q | 2.35
173 | N12T | 2.2
174 | N12L | 2.2
175 | N12H | 1.95
176 | N12F | 1.9
177 | N12I | 1.82
178 | N12V | 2.23
179 | N12C | 1.47
180 | N12Y | 2.1
181 | N12G | 1.83
182 | N12P | 2.19
183 | N12K | 2.18
184 | N12D | 3.9
185 | N12E | 3.54
186 | N12R | 1.43
187 | N12S | 2.21
188 | N12W | 1.5
189 | N12A | 2.2
190 | N12M | 1.89
191 | K15C | 2.25
192 | K15P | 2.29

Row | Variant | protein stability index
193 | K15S | 2.07
194 | K15H | 1.97
195 | K15M | 2.25
196 | K15F | 2.15
197 | K15N | 2.12
198 | K15I | 1.9
199 | K15W | 1.77
200 | K15Y | 1.63
201 | K15D | 2.49
202 | K15R | 1.74
203 | K15G | 2.1
204 | K15V | 2.04
205 | K15A | 1.9
206 | K15Q | 2.34
207 | K15T | 2.1
208 | K15L | 1.75
209 | K15E | 3.46
210 | K20P | 2.2
211 | K20D | 2.71
212 | K20A | 2.4
213 | K20G | 1.93
214 | K20Y | 1.87
215 | K20W | 1.4
216 | K20M | 1.8

Row | Variant | protein stability index
217 | K20L | 2.28
218 | K20E | 2.48
219 | K20F | 2.31
220 | K20V | 2.02
221 | K20Q | 1.89
222 | K20H | 1.79
223 | K20C | 2.13
224 | K20S | 2.3
225 | K20R | 1.83
226 | K20T | 1.68
227 | K20N | 1.87
228 | K20I | 3.7
229 | P11N | 2.26
230 | P11S | 2.26
231 | P11Q | 2.57
232 | P11W | 2.33
233 | P11L | 2.11
234 | P11G | 2.44
235 | P11T | 2.82
236 | P11H | 1.88
237 | P11Y | 1.8
238 | P11K | 2.3
239 | P11E | 4.36
240 | P11D | 4.29

Row | Variant | protein stability index
241 | P11A | 2.68
242 | P11C | 2.12
243 | P11M | 2.65
244 | P11V | 2.23
245 | P11F | 2.16
246 | P11I | 2.49
247 | P11R | 2.64
248 | T14G | 1.88
249 | T14L | 2.23
250 | T14A | 2.16
251 | T14F | 1.97
252 | T14M | 2.65
253 | T14C | 2.02
254 | T14R | 2.08
255 | T14Y | 2.06
256 | T14I | 2.7
257 | T14W | 2.18
258 | T14D | 2.49
259 | T14V | 2.42
260 | T14H | 1.68
261 | T14K | 1.4
262 | T14E | 2.74
263 | T14Q | 2.55
264 | T14P | 1.37

Row | Variant | protein stability index
265 | T14S | 1.76
266 | T14N | 2.25
267 | L24G | 3.33
268 | L24S | 2.69
269 | L24Q | 2.71
270 | L24I | 2.12
271 | L24M | 2.16
272 | L24H | 2.65
273 | L24T | 2.28
274 | L24P | 2.31
275 | L24D | 3.11
276 | L24E | 2.65
277 | L24N | 2.25
278 | L24A | 2.42
279 | L24F | 2.31
280 | L24R | 2.69
281 | L24K | 2.96
282 | L24C | 3.05
283 | A10I | 2.33
284 | A10T | 2.05
285 | A10Y | 3.09
286 | A10R | 3.54
287 | A10Q | 2.35
288 | A10F | 3.3

Row | Variant | protein stability index
289 | A10W | 2.96
290 | A10H | 1.86
291 | A10S | 2.61
292 | A10K | 3.99
293 | A10C | 1.56
294 | A10V | 1.84
295 | A10M | 3
296 | A10N | 3.33
297 | A10E | 4.21
298 | A10P | 3.96
299 | A10L | 3.45
300 | A10G | 3.92
301 | A10D | 4.37
302 | F7K | 4.38
303 | F7Q | 4.79
304 | F7Y | 3.71
305 | F7T | 4.57
306 | F7P | 4.75
307 | F7R | 4.4
308 | F7M | 4
309 | F7L | 3.6
310 | F7V | 4.46
311 | F7H | 4.26
312 | F7N | 4.96

Row | Variant | protein stability index
313 | F7S | 4.12
314 | F7I | 3.94
315 | F7W | 2.42
316 | E16P | 1.57
317 | E16D | 1.82
318 | E16K | 1.77
319 | E16A | 2.56
320 | E16N | 1.76
321 | E16M | 3.24
322 | E16H | 2.65
323 | E16R | 2.66
324 | E16C | 2.17
325 | E16Q | 2.3
326 | E16T | 1.54
327 | E16Y | 2.56
328 | E16G | 1.81
329 | E16L | 2.37
330 | E16F | 2.81
331 | E16V | 1.89
332 | E16W | 2.07
333 | E16I | 2.08
334 | E16S | 2.42
